Experimental data taken from patent US20080280313.

Columns and labels:
[1] = system: kemptide LRRASLG (Promega)
[2] = system: CaM kinase II substrate (281-291) MHKNETVECLK (Calbiochem)
[3] = system: CKII substrate RRREEETEEE (New England Biolabs)
β-casein (Sigma) = β-casein (Sigma) (UniProt P02666)
[4] = system: CKII substrate RRADDSDDDDD (Calbiochem)
[5] = biological target: partially dephosphorylated α-casein (Sigma) (UniProt P02662)
[6] = system: CKI phosphopeptide substrate KRRRALS(p)VASLPGL (New England Biolabs)
[7] = system: CKI substrate DDDEESITRR (Promega)
[8] = system: Syntide-2 substrate PLARTLSVAGLPGKK (Calbiochem)

Chain of β-casein (Sigma) (P02666 16-224): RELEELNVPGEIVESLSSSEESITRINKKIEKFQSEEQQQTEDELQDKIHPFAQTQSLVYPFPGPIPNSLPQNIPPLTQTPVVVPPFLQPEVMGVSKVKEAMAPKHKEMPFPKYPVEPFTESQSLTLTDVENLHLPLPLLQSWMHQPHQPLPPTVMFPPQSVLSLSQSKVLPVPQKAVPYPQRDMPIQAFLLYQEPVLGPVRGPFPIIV
Chain of partially dephosphorylated α-casein (Sigma) (P02662 16-214): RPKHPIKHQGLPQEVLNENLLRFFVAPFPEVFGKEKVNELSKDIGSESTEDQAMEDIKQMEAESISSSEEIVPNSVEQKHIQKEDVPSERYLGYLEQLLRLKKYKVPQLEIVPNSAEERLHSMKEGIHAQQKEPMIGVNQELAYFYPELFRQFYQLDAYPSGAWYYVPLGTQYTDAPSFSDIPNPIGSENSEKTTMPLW

| Substance | kinase activity with peptide substrate [1] | kinase activity with peptide substrate [2] | kinase activity with peptide substrate [3] | Km(app) (β-casein (Sigma)) [µM] | kinase activity with peptide substrate [4] | Km(app) [5] [µM] | Km(app) [6] [µM] | kinase activity with peptide substrate [7] | kinase activity with peptide substrate [8] | Vmax(app) (nmole min^-1 mg^-1) (β-casein (Sigma)) | Vmax(app) (nmole min^-1 mg^-1) [5] | Vmax(app) (nmole min^-1 mg^-1) [6] |
| --- | --- | --- | --- | --- | --- | --- | --- | --- | --- | --- | --- | --- |
| native TgCKIα, partially purified from Toxoplasma gondii tachyzoites | failed to show concentration dependent kinase activity | failed to show concentration dependent kinase activity | failed to show concentration dependent kinase activity | 13 | failed to show concentration dependent kinase activity | 3 | 20 | failed to show concentration dependent kinase activity | failed to show concentration dependent kinase activity | – | – | – |
| FLAGTgCKIα, N-terminal FLAG epitope tagged Toxoplasma gondii casein kinase I alpha | failed to show concentration dependent kinase activity | failed to show concentration dependent kinase activity | failed to show concentration dependent kinase activity | 30 | failed to show concentration dependent kinase activity | 4 | 80 | failed to show concentration dependent kinase activity | failed to show concentration dependent kinase activity | 8 | 8 | 26 |
